Reference: patent publication US11898183B2, “Programmed microorganisms to attenuate a disease” (priority 2020, dated 2024)

B1: Glycosyltransferase (UGT) (SEQ ID NO: 48) Barbarea vulgaris (protein, listed as Barbarea vulgaris)
chain: MKSELVFIPYPGIGHLRPTVEVAKLLVDREPRLSISVFILPFISGDEVGASDYISALSAASNDRLRYKVIFTGDQETAEPTKLTLHIENQVPKVRTAVAKLIDEYSKLLDSPKIVGFVLDMFCTSMIDVANEFELPSYMFFTSSAGILAVSFHVQVLYDEKKCNFSETMFEDSEAELILPSLTRPYPVKSLPYALFRTEMLIMHVNLARRFRELKGILVNTVDELEPHALKFLLSGITPPAYPVGPLLHLESNQDDESEDEKRSEIIMWLDEQPASSVVFLCFGSMGGFSEEQTREIAIALERSGHRFLWSLRRESPNIDKELPGEFTNLEEVLPEGFFDRTKGIGKVIGWAPQVAVLENPAIGGFVTHGGWNSVLESLWFGVPTAMWPLYAEQKFNAFVMVEELGLAVEIKKYWRGDLLLGRSAMEIVTADEIERGITCLMQQDSDVRKRVKEMKGKCHVALMDGGSSTLALDKFVEDVTKNI
B2: hydroxycinnamoyl-CoA: quinate hydroxycinnamoyltransferase p-coumaroyl quinate 3′-hydroxylase fusion (HCTC3H) (SEQ ID NO: 14) Coffea canephora (protein, listed as Coffea canephora)
chain: MKIEVKESTMVRPAQETPGRNLWNSNVDLVVPNFHTPSVYFYRPTGSSNFFDAKVLKDALSRALVPFYPMAGRLKRDEDGRIEIECNGEGVLFVEAESDGVVDDFGDFAPTLELRRLIPAVDYSQGISSYALLVLQVTYFKCGGVSLGVGMRHHAADGFSGLHFINSWSDMARGLDVTLPPFIDRTLLRARDPPQPQFQHIEYQPPPALKVSPQTAKSDSVPETAVSIFKLTREQISALKAKSKEDGNTISYSSYEMLAGHVWRCACKARGLEVDQGTKLYIATDGRARLRPSLPPGYFGNVIFTATPIAIAGDLEFKPVWYAASKIHDALARMDNDYLRSALDYLELQPDLKALVRGAHTFKCPNLGITSWVRLPIHDADFGWGRPIFMGPGGIAYEGLSFILPSPTNDGSMSVAISLQGEHMKLFQSFLYDIGGGGSGGGGSGGGGSMALLLILLPVAFIFLAYSLYERLRFKLPPGPRPKPVVGNIYDIKPVRFKCYAEWSKLYGPIFSVYFGSQLNTVVNTAELAKEVLKDNDQQLADRYRSRPSARMSRNGQDLIWADYGPHYVKVRKLCNLELFTPKRLEGLRPLREDEVTAMVDSIFKDCTKPENKGKSLLMRNYLGSVAFNNITRLTFGKRFMNSEGVVDEQGQEFKGIVSNGIRIGAKLSVADHIPWLRWMFVGENEDLDKHNARRDKLTRMIMEEHTLARQKSGNTKQHFVDALLTLQKQYELSDDTVIGLLWDMITAGMDTTTISVEWAMAELVKNPRVQQKAQEELDRVIGSDRIMTEADFAKLPYLQCVAKEALRLHPPTPLMLPHRANANVKIGGYDIPKGSIVHVNVWAIARDPAAWKNPLEFRPERFLEEDVDIKGHDYRLLPFGAGRRICPGAQLALNLVTSMLGHLLHHFTWSPPPGVRPEEIDLEESPGTVTYMRTPLQAVATPRLPAHLYNRVPVE
B3: Cinnamte 4 hydroxylase 4 coumarate coenzyme ligase fusion (C4H4CL) (SEQ ID NO: 12) Azospirillum sp. (protein)
chain: MDLLLLEKTLLALFIAATIAITISKLRGKRFKLPPGPIPVPVFGNWLQVGDDLNHRNLTDLAKRFGDIFLLRMGQRNLVVVSSPELAKEVLHTQGVEFGSRTRNVVFDIFTGKGQDMVFTVYGTLAEMRRIMTVPFFTNKVVQQYRFGWEFEAQSVVDDVKKNPEACSSGIVLRRRLQLMMYNIMYRIMFDRRFESEEDPLFVKLKALNGERSRLAQSFEYNYGDFIPILRPFLKGYLKLCKEVKDRRLQLFKDYFVDERKKLGSTKSTTNEGLKCAIDHILDAQQKGEINDDNVLYIVENINVAAIETTLWSIEWGIAELVNHQKIQNKVREEIDRVLGPGHQVTEPDLQKLPYLQAVIKETLRLRMAIPLLVPHMNLHDAKLSGFDIPAESKILVNAWWLANNPAQWKKPEEFRPERFLEEESHVEANGNDFRYLPFGVGRRSCPGIILALPILGITLGRLVQNFELLPPPGQSKIDTAEKGGQFSLHILKHSTIVCKPRSFNGGGGSGGGGSGGGGSMTIQRWWRNRESLNRVLCDLLAGEFARLRPGGSPPAHPHRWPETLPLGPDGVGADSLDLLQLAAALNEALHLHRSGIEDYLLMHRTVGDWLDVCEAALGRFDGALSFRTSGSTGEGKRCEHPLAALEEEADALAALLSGGAEAPRRVVSVVPAHHIYGFLFTVLLPDRLAVPVVDGRGTSPGGLAARLGPGDLVVAHPDWWGALLRSGAALPDGVTGTSSTAPCPPDTARGVRGVGLARLVEVFGSSETAGLGWRESPDAPFRPFPWWRFGDDGRVTRRLADGTVLSATLQDRLSHDEEGFRPSGRLDTVVQVGGVNVSLAGVQAHLAGHPDVEAAAVRLMRPEEGTRLKAFIVPARTAPPREELYRRLTDWIEATLPAPHRPRALAFGPALPVNGMGKPCDWPLATCR
modifications: Depicts the amino acid sequence of the enzyme Cinnamte 4 hydroxylase 4 coumarate coenzyme ligase fusion (C4H4CL)
B4: Glycosyltransferase (UGT) (SEQ ID NO: 46) Cicer arietinum (protein, listed as Cicer arietinum)
chain: MKKIEVVFIPSPGVGHLISTLEFANLLINRNNRLNITVLVINFPKTVEKQTNYSLTESENLHVINLPQTTTHVPSTSDVGNSISALVETQKSNVKQAVSNLTGTLAAFVVDMFCTTMIDVANELGVPSLVFFTSGVAFLGLMLHLHTIWEQQDTELLLQQDELDIPSFANPVATNTLPTLVLRKEWESSFIKYGNGLKKASGIIVNSFHELEPHAVRSFLEDPTLRDLPIYPVGPILNPKSNVDSDDVIKWLDDQPPSSVVFLCFGSMGTFDEEQVREIALAIERSGVRFLWSLRKPQPQGTMVPPSDYTLSQMLEVLPEGFLDRTANIGRVIGWAPQVQVLAHQATGGFVSHCGWNSTLESIYYGVPIATWPLFAEQQTNAFELVRELKIAVEIALDYRLEFDIGRNYLLDADKIERGIRGVLDKDGEVRKKVKEMSQKSRNVLLEGGSSYTYLGQLIDYITNQV
B5: Glycosyltransferase (UGT) (SEQ ID NO: 44) Lycium barbarum (protein)
chain: MGHLVSTVEMAKQLVDREDQLSITVLIMTLPTETKIPSYTKSLSSNYTSRIRLLELTQPETSVNMGSATHPMKFMSEFITSYKGRVKDAVADMFSSLSSVKLAGFVIDMFCTAMIDVANDFGVPSYLFYTSGAAMLGLQFHFQSLISQNVLSYLDSESEVLIPTYINPVPVKFLPGLILDNDEYSIMFLDLAGRFKETKGIMVNTFVEVESHALKALSDDEKIPPIYPVGPILNLGGGNDGHGEEYDSIMKWLDGQPNSSVVFLCFGSMGSFEEDQVKEVANALESSGYQFLWSLRQPPPKDKLQFPSEFENLEEVLPEGFLQRTKGRGKMIGWAPQVAILSHPSVGGFVSHCGWNSTLESVRSGVPMATWPMYAEQQSNAFQLVKDLEMAVEIKMDYRKDFMTINQPVLVKAEEIGNGIRQLMDLVNKIRAKVRKMKEKSEAAIMEGGSSYVALGNFVETVMKS
modifications: Depcits the amino acid sequence of Glycosyltransferase (UGT of Lycium barbarum)
B6: 2-Deoxy-d-ribose-5-phosphate aldolase (DERA) (SEQ ID NO: 50) Desulfatibacillum aliphaticivorans (protein)
chain: MTGPKICVVGACNIDLISYVERLPVLGETLHGKKFSMGFGGKGANQAVMAAKLGGEVAMVGKLGRDVFGENTLANFKKLGVNVSHVHFTEEAFSGVAPIAVDDNGANSIIIVTGASDLLSAEEIRAAENAIAKSKVLVCQLEIPMEQNLEALRIARKNNVPTIFNPAPARPGLPDELYQLSDIFCPNESETEILTGMPVETMEQAEQAAKALLERGPKTVILTLGERGCLLVDANGARHIPTRKVEAIDTTGAGDCFVGSLAFFLAAGKSLEDAINRANKIAAVSVCGQGTQSSFPGASELDPEILSDIQPAESQAPAMSAKDLAQYIDHTLLKPEAPLSAFDKICEEAILHQFRSVCVNSCKISYIAKKLKGTGVDACAVIGFPLGAMSTAAKAFEAKQAVMDGAAELDMVINVGALKSGDFDAVFDDIKAVRDAAPLPIILKVIIETCLLTDEEKARACRIAKAADADFVKTSTGFSTGGATLEDIALMRDTVGPYMGVKASGGIKDAKTAIAMIEAGATRIGAGAGVEIVSGLQSDADGSY
modifications: Depicts the amino acid sequence of 2-Deoxy-d- ribose-5-phosphate aldolase (DERA) of Desulfatibacillum aliphaticivorans

System: pathway specific substrates
Assay: Enzyme functionality of pathway enzyme homologs and fusion constructs in lysed E. coli cell extracts, product by HPLC
Format: biochemical, E. coli BL21
Conditions: recombinant E. coli BL21 clone, lysed cell extract
Protocol: As per one of the possible implementations of the present disclosure, two proteins—cinnamate-4-hydroxylate (C4H) and 4-coumaroyl CoA-ligase (4CL) were expressed as one fusion protein. Also, other two proteins which were expressed as one fusion protein were hydroxycinnamoyl-CoA quinate hydroxycinnamoyltransferase (HCT) and p-coumaroyl quinate 3′-hydroxylase (HCTC3H). The fusion gene and the corresponding fusion protein was prepared using the following method. […] The enzyme fusion constructs were made for the selected genes (Table 5). Pathway genes and the fusion constructs were individually cloned in E. coli expression vector pET28+ under T7 promoter and transformed in E. coli BL21 cells. Recombinant bacterial cells were induced with IPTG and enzyme functionality was tested with pathway specific substrates (Table 5) using lysed E. coli cell extracts. HPLC analysis was carried out to quantify the product formation and in turn shortlisting of efficient enzymes for functional pathway assembly towards Etoposide in E. coli.
The E. coli transformants were grown overnight at 37° C. in 1 ml of M9 minimal media containing ampicillin (100 mg/1), in 96-well format. The next day, 150 μl of each culture was inoculated into 3 ml M9 minimal media containing ampicillin (100 mg/1), IPTG 0.1 mM in 24-well format, and incubated at 30° C. and 200 rpm for ˜20 hours. The following day, cells were spun down and pellets were resuspended in 100 μl of lysis buffer containing 10 mM Tris-HCl pH 8, 5 mM MgCl2, 1 mM CaCl2) and complete mini protease inhibitor EDTA-free (3 tablets/100 ml) (Hoffmann-La Roche, Basel, Switzerland) and frozen at −80° C. for at least 15 minutes to promote cell lysis. Pellets were thawed at room temperature and 50 μl of DNase mix (1 μl of 1.4 mg/ml DNase in H2O (˜80000 u/ml), 1.2 μl of MgCl2 500 mM and 47.8 μl of 4×PBS buffer solution) was added to each well. Plates were shaken at 500 rpm for 5 min at room temperature to allow degradation of genomic DNA. Plates were spun down at 4000 rpm for 30 min at 4° C. and six μl of the lysates were used in in vitro using appropriate substrates for enzymes as per Table 6. In each case, the resulting compounds were measured by HPLC. Results were analysed in comparison with the lysates expressing the corresponding controls (the empty plasmid). […]

[1] = substrate tested: Desmethylepipodophyllotoxin

Molecule	Enzyme activity in terms of product formation (in %) [1]	other results
B1	43%	
B2		Enzyme activity in terms of product formation (in %) (substrate tested: Coumaroyl coA): 89%
B3		Enzyme activity in terms of product formation (in %) (substrate tested: Cinnamate): 97%
B4	97%	
B5	67%	
B6		Enzyme activity in terms of product formation (in %) (substrate tested: Desmethylepipodophyllotoxin glucopyranoside): 83%
